Reference: paper PMC10616090, “Tailoring FPOX enzymes for enhanced stability and expanded substrate recognition” (Scientific Reports, 2023)
Where no end group is shown, it is not given here.

B1: fructosyl-Val-His-Leu-Thr-Pro-Glu hexapeptide (F6P) (peptide)
peptide: {1‑deoxyfructosyl}-VHLTPE
B2: PnFPOX (WT) (Parastagonospora nodorum SN15) (protein)
chain: MAPSRANTSVIVVGGGGTIGSSTALHLVRSGYTPSNVTVLDAYPIPSSQSAGNDLNKIMGVSLRNPVDLQLALEARQMWNEDELFKKFFHNTGRLDCAHGEKDIADLKSGYQALVDAGLDATNEWLDSEDEILKRMPLLSRDQIKGWKAIFSKDGGWLAAAKAINAVGEYLRDQGVRFGFYGAGSFKAPLLAEGVCIGVETVDGTRYYADKVVLAAGAWSPTLVELHEQCVSKAWVYGHIQLTPEEAARYKNSPVVYNGDVGFFFEPNEHGVIKVCDEFPGFTRFKMHQPFGAKAPKRISVPRSHAKHPTDTIPDASDVSIRRAIATFMPQFKNKKMFNQAMCWCTDTADAALLICEHPEWKNFVLATGDSGHSFKLLPNIGKHVVELLEGTLADDLAHAWRWRPGSGDALKSRRSAPAKDLADMPGWNHDKPRANL
notes: C-terminal 6His tag (kept), recombinant in E. coli BL21 Star (DE3); pET15b or pET17b; FAD enzyme

Key:
[1] = target: Phaeosphaeria nodorum fructosyl peptide oxidase (PnFPOX), wild type (Phaeosphaeria nodorum)
[2] = target: X02C variant of PnFPOX (derived from L3-35A through X02A) (Phaeosphaeria nodorum)
[3] = substrate: CC(C)[C@H](NC[C@@]1(O)OC[C@@H](O)[C@@H](O)[C@@H]1O)C(=O)O; assay: glucosone release, o-phenylenediamine, A322, Lineweaver-Burk fit; assay type: biochemical, Parastagonospora nodorum; conditions: 20 mM Tris HCl pH 7.4, 25 °C, 20 mM o-phenylenediamine, substrate 0.05-10 mM
Source text: glucosone release, o-phenylenediamine, A322, Lineweaver-Burk fit on PnFPOX (WT)

| Binder | Km for F6P in the enzymatic activity assay (glucosone release at 322 nm, F6P 0.05 to 1 mM, Lineweaver-Burk fit) [1] | Km for F6P in the enzymatic activity assay (glucosone release at 322 nm, F6P 0.05 to 1 mM, Lineweaver-Burk fit) [2] | Km [3] | Vmax [3] | kcat [3] | kcat/Km [3] |
| --- | --- | --- | --- | --- | --- | --- |
| B1 | 810 µM | 30 µM |  |  |  |  |
| B2 |  |  | 5930 ± 1610 µM | 41700 µM/min | 99.3 ± 19.9 s⁻¹ | 16800 M⁻¹ s⁻¹ |
